The source of these data is patent US20260258152.

In this series the target is activated Factor VIII (FVIIIa) (UniProt P00451).
UniProt P00451, sequence (P00451 other isoform, or with tags, fused parts or gaps): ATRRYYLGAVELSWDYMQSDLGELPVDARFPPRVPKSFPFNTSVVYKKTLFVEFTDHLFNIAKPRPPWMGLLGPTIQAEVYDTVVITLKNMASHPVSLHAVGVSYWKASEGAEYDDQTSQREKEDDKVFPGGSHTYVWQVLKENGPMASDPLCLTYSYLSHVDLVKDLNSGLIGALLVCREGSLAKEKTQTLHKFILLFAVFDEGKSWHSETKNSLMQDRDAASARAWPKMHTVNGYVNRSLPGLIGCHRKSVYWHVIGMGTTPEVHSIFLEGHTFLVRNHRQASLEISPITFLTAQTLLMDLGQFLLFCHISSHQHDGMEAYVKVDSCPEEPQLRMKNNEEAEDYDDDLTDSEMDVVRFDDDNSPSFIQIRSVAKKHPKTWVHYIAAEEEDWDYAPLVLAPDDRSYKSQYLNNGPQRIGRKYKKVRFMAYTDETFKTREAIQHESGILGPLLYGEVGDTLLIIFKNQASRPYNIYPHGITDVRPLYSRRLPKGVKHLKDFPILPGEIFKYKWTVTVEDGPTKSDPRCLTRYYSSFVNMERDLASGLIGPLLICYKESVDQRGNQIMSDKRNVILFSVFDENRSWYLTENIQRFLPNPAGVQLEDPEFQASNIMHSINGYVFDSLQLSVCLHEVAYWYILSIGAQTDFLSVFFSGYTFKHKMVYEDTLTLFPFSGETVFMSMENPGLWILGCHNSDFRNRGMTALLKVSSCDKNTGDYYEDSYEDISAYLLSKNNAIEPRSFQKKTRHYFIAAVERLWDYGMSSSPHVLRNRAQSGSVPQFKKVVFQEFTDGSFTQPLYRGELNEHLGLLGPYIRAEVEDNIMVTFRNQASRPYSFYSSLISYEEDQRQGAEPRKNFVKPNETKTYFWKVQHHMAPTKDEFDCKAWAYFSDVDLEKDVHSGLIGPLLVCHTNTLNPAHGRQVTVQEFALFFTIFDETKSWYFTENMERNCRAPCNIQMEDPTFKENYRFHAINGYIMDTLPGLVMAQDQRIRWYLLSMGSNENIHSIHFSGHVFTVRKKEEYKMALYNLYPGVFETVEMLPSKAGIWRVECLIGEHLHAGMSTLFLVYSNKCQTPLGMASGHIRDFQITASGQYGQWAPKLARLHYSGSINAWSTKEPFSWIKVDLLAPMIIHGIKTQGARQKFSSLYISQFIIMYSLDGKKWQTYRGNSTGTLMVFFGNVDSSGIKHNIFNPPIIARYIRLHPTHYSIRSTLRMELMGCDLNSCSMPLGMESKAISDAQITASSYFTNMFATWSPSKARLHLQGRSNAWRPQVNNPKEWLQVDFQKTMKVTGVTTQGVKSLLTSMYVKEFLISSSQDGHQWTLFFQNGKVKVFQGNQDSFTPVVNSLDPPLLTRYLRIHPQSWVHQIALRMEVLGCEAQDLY

“Factor IX G93S (hemophilia B-causing FIX variant)”: the “FIX activity without the FVIIIa-mimetic” value is “only 0.1% and 2% activity without the FVIIIa-mimetic”; the “FIX activity, one-stage aPTT clotting assay with and without 300 nM emicizumab” value is “I397T, E387K, R338P, and G93S all substantially increase their activity with the addition of emicizumab”.
